Experimental data from a protein production outcome set (Wang et al. 2014).

Assay: label from the status in PepcDB records

| Sequence | protein production |
| --- | --- |
| MSLTSLIIAEDQNMLRQAMVQLIKLHGDFEILADTDNGLDAMKLIEEYNPNVVILDIEMPGMTGLEVLAEIRKKHLNIKVIIVTTFKRPGYFEKAVVNDVDAYVLKERSIEELVETINKVNNGEKEGHHHHHH | not failed |
| MSLTTFLFRNGALLDPDHPDLLQGFEILIEDGFIREVSDKPIKSSNAHVIDVKGKTIMPGLIDLHVHVVAIEFNLPRVATLPNVLVTLRAVPIMRAMLRRGFTTVRDAGGAGYPFKQAVESGLVEGPRLFVSGRALSQTGGHADPRARSDYMPPDSPCGCCVRVGALGRVADGVDEVRRAVREELQMGADQIKIMASGGVASPTDPVGVFGYSEDEIRAIVAEAQGRGTYVLAHAYTPAAIARAVRCGVRTIEHGNLIDDETARLVAEHGAYVVPTLVTYDALASEGEKYGLPPESIAKIADVHGAGLHSIEIMKRAGVKMGFGTDLLGEAQRLQSDEFRILAEVLSPAEVIASATIVSAEVLGMQDKLGRIVPGAHADVLVVDGNPLKSVDCLLGQGEHIPLVMKDGRLFVNELEGHEGHHHHHH | not failed |
| MSLYKRKSKLIGLLLPDMSNPFFTLIARGVEDVALAHGYQVLIGNSDNDIKKAQGYLATFVSHNCTGMISTAFNENIIENTLTDHHIPFVFIDRINNEHNGISTNHFKGGQLQAEVVRKGKGKNVLIVHENLLIDAFHQRVQGIKYILDQQRIDYKMLEATLLDNDKKFIDLIKELSIDSIICSNDLLAINVLGIVQRYHFKVPAEIQIIGYDNIPFSEMTYPQITTIDQSAYHLGEIAVSQLLGLNTDNLTNNHKQLALTVKHRGSTREGHHHHHH | not failed |
| MSMLGIKWKLHGNGKSIRPGHVVAPDERLAWPLTIGIGMQHVVAMFGATFLVPIITGMPPATTLLFSGIGTLLFLVITKGRVPSYLGSSFAFIAPIMASQQQYGVSGALGGVVLAGVVLALIGAVVQKFGAEWINRLMPPIVTGAIVALIGLNLAPAAKANFDAAPVTALITLVTIILVSVLFRGILGRLSILVGVVVGYLVAMMRGEVSYEKMDAAAWVGLPLFQTPEFHIGVVGLFVPVVLVLVAENVGHVKSVAAMTGQNLDGVSGRALMADGAATVLAGFGGGSGTTTYAENIGVMAATKVYSTAAYWVAGVFAILLSFSPKFGELIATVPPGVLGGAATMLYGMIGVLGVKIWVQNKVNFSNPINLTTAAVALIIGIADYAWTIGELKFTGIALGSAAALVIYHGMKGLAHWRGTVAEPETETAGLPPAVKSAMNAAAKRGGKKGK | failed |
| MSMPNHPNLTTADAKKILNKFNCLDIAPILKPSEKESVRRALILITKLSDYQILGICADTADEGLLAMKTYSHALGYEVPIDLPVVEGPVYIKLNGKNGLCYLDSYAGHHRGVLVSCQSYYEGGINEMYGHLPLDLFV | not failed |
| MSMSSIPSSSPGGKRYGWVEKIGNKVPHPFLLFIYLIAVLIAATAILSALNVGVQNPTDGSRVVVKNLLSVEGLHWFLPNVIKNFSGFAPLGAILALVLGAGFAERVGLLPALMVKMASHVSARYASYMVLFIAFFSHISSDAALVIMPPLGALMFLAVGRHPVAGLLAAIAGVGCGFTANLLIVTTDVLLSGISTEAAKSIDASLHVSVIDNWYFMATSVIVLTLVGGLITDKLVEPRLGQWQGSRDEKLQTLTPAERFGLRIAGVATLVFVAVIALMVVPENGILRDPVQHTVMPSPFIKGIVPLIIFFFFVVSLAYGIATGKIRRQADLPQLMIEPMKEMAGFIVMVFPLAQFVAMFNWSNMGKFMAVGLTDLLESSGMNGVPAFVGLALLSAFLCMFIASGSAIWSILAPIFVPMFMLLGFHPAFAQILFRIADSSVLPLAPVSPFVPLFLGFLQRYRPDARLGTYYSLVLPYPLIFLAVWLLLLVGWYLVGLPIGPGIYPRLS | failed |
| MSMSSSSSICGDEDGDLLLDEEEEIDFYAILNVPKDATDDEIIKAYRKRCLMFHPDRFVDNDEKKDAERVFVKLRRAHEVLLDPKQRAIYDALGVQGLDTQGWEL | not failed |
| MSMVVDSVPDSSTFVGKTIRPVAAVSIHGIVFDGERLLAVDSKNGYLLEIDPYTNNTKLLNGQYWQEFIGATGLAIADRQLWFSSGQYVYTCNLEGPDLKPEVFAWFDDPVNGVAIWESTVYITCHKRGHIWVYGRDTRKLVATFYSPGIGVENITVRGEELWVCDSAEQSVYCLDRATGEINFSLITPFESPTGLAFYDDQAVGKATLYVAYVQQEPYVRDNPNADPNHELMYRETTFIHPLYFYNDPHQCCAFSNGYLVEMRYVEELAPLDPVDLKQVEWRMALPAVTPRQRIRKIESVGLPFSRIDDVNGQKVAVFEFDQLDLDSRAVFGWRVEMEVWGIKYRLKPSDCEHLPALPEGFADRYLVDNDNLSMETDIIIRAAAEAIGRETNLLRQMFNIRNYVYDRLSYGIKPHIDTPDLALRRGVGSCGEYVGVLLALARLNGIACRTAGRYKCPPHPLQRNLPMEPDFNHVWFEFYLPGIGWLPMESNPDDTNDGGPYPTRFFMGLAWYHAETAKDVPFEQLLSQGIPVNKQVVSIGELAINHVQFTILEELDPAAHLAHLEHHHHHH | not failed |
| MSNAIEINELHWLLAVTQNIDVGIVVLDLNYRVTVWNTFMENRSGVVPYVAIDKTFFELFPEVNRQWLSKKIDNVVTLGTPAFTIWEQRPYLVRFKNYQPITGHEEFMYQNTTLFPLRSTTGAISHVCLVIYDVTDVAANRNQLQAANDKLQQLSGAEQK | not failed |
| MSNDNGVSRRQFMKTSALAAGGLLLACHLPLGRRDAAAATAEAFTPNAFLHIGTDERVTVIVNKSEMGQGVYTSLPMLVAEELCCDWKRVTFRPSPVAPEYNHTQFGPIMVTGGSTSVRSEWSRLSLAGAAAREMLIAAAAQEWRVEPAACRAEKGFVLGPGGRKLSFGTLAPKAASLPVPKEPKLKPGAKTLLGKPLKRLDSPAKIKGTAVFGIDVRAPGMLTALIARPPVFGGTVKGFDAAKAKAVPGVLDVVAVDAGVAVVADGFWPALKGREALAISWDEGDGARVSTDAMREEYARLAATPGAVARKDGDAPAELAKAARRFEAEYEVPYLAHATMEPLNCFVDLQSDSCLIRTGSQFQTGDRNAAARVAGLKPEQVTLETTFLGGGFGRRACPASDFVIEAVQVAKTVGKPVMVIRTREDDMRAGFYRPLWRDRVAACLDGRGYPLAWHHCIVGQSIMIGTPFEAMIRNGIDDTSVEGAADTPYAIPNLQVELHSPRNPVPVLWWRSVGHSHTAFVVESFLDELAHAAGKDPYQYRRALLAKHPRHLKVLETAARKAGWGKPLPKGRGRGIAVHESFGSFIAQVAEVSLSGDGRIRVHRVVCAVDCGRIVNPDTIEAQMESGITFGLSAALHGAITLRNGRVEQGNFDDYPLVRMAEMPTVEVHIVLSGEDPGGIGEPGVPPIAPAVANALFAASGIRVRSLPLTPETVKRAGGRAA | failed |
| MSNDTPFDALWQRMLARGWTPVSESRLDDWLTQAPDGVVLLSSDPKRTPEVSDNPVMIGELLHEFPDYTWQVAIADLEQSEAIGDRFGAFRFPATLVFTGGNYRGVLNGIHPWAELINLMRGLVEPQQERASLEHHHHHH | not failed |
| MSNFEKRNRKMAEKNIRKPKQERSIEKRNKILQVAKDLFSDKTYFNVTTNEIAKKADVSVGTLYAYFASKEDILTALLKRYNDFFLTTIFADINSQDSLDRFKKNPKEWLNVLINQLLAAEDKIFHAQIEMLAYAIPQAKALLEEHNNNLKNLTYKCLLYYSDQAANPSFKTLSLVVFDFISALVDELLYHEHTQEEAHQIKKTGIDSLDLIIKSYL | not failed |
| MSNHIDRDVINALIAGHFADPFSVLGMHRTDAGLEVRALLPDATDVWVIEPKTGRKVGKLECLDSRGFFSGVLPRRKNAFRYQLAVTWHGQQNLIDDPYRFGPLLQ | not failed |
| MSNHRHDHSLPSDADSRYLVAALTLLAAFMITEIITAVISGSLALLSDAGHMLSDIGAIAIALWAARLTRRRPQGSWTWGWKRAEIMSAAVNGVTLLVVAILVGIEAVRRLVTPPAVGGGLVMVIAAVGVVVNVAVAWLVARANRRSLNVEGAYQHILTDLFGFIGTLVAGLVIVTTGWTRADAIASLIICGLMLRAAWSLLSQTGRILMEVAPASLDLDEVRHHLMDLDHVRSVHDLHAWTVSSDLPALSAHIVVEDSCFADGHAPILLAQIQQCLSGHFDLDHSTLQLEPPRHAGTENQTM | failed |
| MSNHSRDEPSTAPKTDQWYDLVLGSSAKDDSSHKFCTLRYEFKPASIDKNRSGSMHKKKDNRVSVEFQNNQPGKPKVTFEGSSEDYKESDAVLFFDGEKFRLERLHRAVTQLRHVRTPGESAAASQSAVPVEHRLSPVGRAAKSPQVNRSLLPDVPVEVERIEIGKPENSAEPANTGNVPATSPVEDKNDDGDEHQEIDLVEIFGSFTPENDNAEKENADGGEYVESLNKQLSMTEEEIADVDDDSGGEGEKGLNAAEALRAQVNAEVQKSQTSSSSSSSGSSSGSDSDGRSKSVSSGSGSGGQSSSGSSSRGSGGSDDEDEVNSV | failed |
| MSNKEGSGGFRKRKHDNFPHNQRREGKDVNSSSPVMLAFKSFQQELDARHDKYERLVKLSRDITVESKRTIFLLHRITSAPDMEDILTESEIKLDGVRQKIFQVAQELSGEDMHQFHRAITTGLQEYVEAVSFQHFIKTRSLISMDEINKQLIFTTEDNGKENKTPSSDAQDKQFGTWRLRVTPVDYLLGVADLTGELMRMCINSVGNGDIDTPFEVSQFLRQVYDGFSFIGNTGPYEVSKKLYTLKQSLAKVENACYALKVRGSEIPKHMLADVFSVKTEMIDQEEGIS | failed |
| MSNKGSSDLRLLLSTLVISGLVAGLAYWQLSQHWTRSPDQNAGSPLHTPTSKWQKIALAMTLRGHEDEVNAIALSPDGNFLVSAGDDRRLYFWNLATGTALGQAKGHTDWIYALVMTPDGQTVISGSKDKTIKLWGVGDRQLQATLSGHQDFVNGLALSPDGRTLASASYDHTVKLWNVPSRQEITTLKANEGIMLSVAISRDGRFLATGGVDKLIRIWDLPSRRLLRTLEGHTSDVNSLAFTPDSSQLVSGSDKDGIKLWNLTTGELQQQFGTEGGQVFSVAVSPDGSTLASGHGDQTVKLWSLSGQLLRNLKGHSGAVYSVVFGQDQLISASEDKTIKVWRLFPETP | failed |
| MSNMVEVPIFIAILSFIVMCIGELLAYYSVSLKYKYEFEAISFGFIFGVATLILIPKSYSNMFVLYVILGMITVYLIEKYLAYCPLSKKYCVECDNLEENRIKFIYPISFFIHTFIDGLIIAVSYISEIGLPLYLAILMHKLPAGFVLISPLKGVYKNPLYPGVFVSFGTVLGTIVGLVTLKDVSTKILLAFSGGVFLGAFLMLAPHIYEHKEEKTFLYILLGYILVGIIALH | failed |
| MSNNEPSSLKQSIKLAWPISLQSILVTMLGMSDIMMVGHLGDTAVASVGLGNRIQFVFLIILAGLASGVGTLSAQHFGAGQIGVIRQIIVKTLVIAAGILLPILLITFLFAGNIMGIATTDPSVINTGTSYLWLTMPSLIFVVVVMIFENALRGLGQVIFPMFISIIAIITNIILNYWLIKGGLGIEPMGVIGAALATLLARALHALLILTYLAKVKHSIFPTTFFCADFYNKQAWTKLLTLVWPMMLSFGVWSLGTFVYQLIYGRIGTQELAVMSLLAPIEGLLVSFFFGFASACAILVGQRLGKNEFSNAWSLAKNYAISAPIITFLLALILLQYQYLVFMPFSNLSSETITLSQEILVLICFGTCLKVFNMTIAMGILRAGGDNKYCMFIDISGMWIISIPLTFMAAFYFMLPLYWVALIAYSEEIIKAVMFIFRMKTRHWLKNLTAESMA | failed |
| MSNPLLSIIIPTHNRPHLVTHAVQSALEQTMEDLEVIVVDDASTQPIDLPSHPRLRLIRLLQSHGGAGARNVGLEAALGRWVAFLDDDDRLLPQMAEVSLEALSQTSLPAPVAVISGLEEVNAQGKVLGQRLPPPLRPRGVHFFLEEIEPDQSYNTKQTLVVEREVLQKIGGWDEEMRSRVHSELFLRLNPACSIIGLPIITYQLYNHGGQRVSRNPMLRQESFLRLVHKHKSLFQAHPQMFAKLVYEHANKCYEIGLKREAFYNLFWSMQLDPLQIAPRVVTRVYQSRLKFVIRSYKLKH | failed |
